Experimental data: the nanobody polyreactivity screen of Harvey et al. (2022)

Assay: yeast display, Sf9 membrane polyspecificity reagent, FACS + sequencing; frameworks hold sequencing errors
How it was run: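 Synthetic nanobody libraries on Saccharomyces cerevisiae BJ5465 were galactose-induced for 36–48 hours, stained 1 hour at 4 °C with 10% biotinylated, detergent-solubilized Sf9 membrane reagent and enriched on streptavidin microbeads. FACS then separated cells into low and high (top ~1%) gates by anti-HA (expression) and streptavidin (reagent binding) fluorescence. Genes were colony-PCR amplified, MiSeq 2 × 250 sequenced and CDR-length filtered. A clone's polyreactivity label is that of its gate of origin.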

Q: With “QVQLVESGGGLVQAGGSLRLSCAASGSTFDYYYMGWYRQAPGKERELVAAISYSGTSTYYADSVKGRFTISRDNAKNTVYLQMNSQKPEDTAVYYCAKVFPDWYWYDYCGQGTQVTVSS” as the sequence, how does the “polyreactivity (PSR sort gate)” value read?
A: low polyreactivity

Q: For “QVQLVESGGGLVQAGGSLRLSCAASGSTFEANAMGWYRQAPGKERELVAVITWTGGSTYYADSVKGRFTISRDNAKNTVYLQMNSLKPEDTAVYYCAADGVVPCRFFWPAHEYDYWGQGTQVTVSS”, which “polyreactivity (PSR sort gate)” value is on record?
A: low polyreactivity

Q: For “QVQLVESGGGLVQAGGSLRLSCAASGSTFEAYAMGWYRQAPGKERELVAAINFTGGRTYYADSVKGRFTISRDNAKNTVYLQINSLKPEDTAVYYCAARKWGVPYIDNDYWGQGTQVTVSS”, which “polyreactivity (PSR sort gate)” value is on record?
A: low polyreactivity

Q: For “QVQLVESGGGLVQAGGSLRLSCAASGSTFEDYTLGGYRQATGKERELVAAINWDGSRTYYADSVKGRFTISRDNAKNTVYLQMNSLKPEDTAVYDCAAHSAYHRRRMYYWGQGTQVTVSS”, which “polyreactivity (PSR sort gate)” value is on record?
A: high polyreactivity

Q: Which “polyreactivity (PSR sort gate)” value does the source give for “QVQLVESGGGLVQAGGSLRLSCAASGSTFEGYAMGWYRQAPGKERELVAVISSGSITKYADSVKGRFTISRDNAKNTVYLQMNSLKPEDTAVYYCARKGGIIFASYLLGGYWGQGTQVTVSS” here?
A: low polyreactivity

Q: With “QVQLVESGGGLVQAGGSLRLSCAASGSTFEHYAMGWYRQAPGKERELVAAITRRGGSTYYADSVKGRFTISSDNAKNTVYLQMNSLKPEDTAVYYCYTVLRYSYYLPGYDYWGQGTQVTVSS” as the sequence, how does the “polyreactivity (PSR sort gate)” value read?
A: high polyreactivity

Q: With “QVQLVESGGGLVQAGGSLRLSCAASGSTFENYVRGWYRQAPGKERELFAAISRGGGSTHYADSVKGRFTISRDNAKITVYLQKKSLKPEDTAVYYCAARYQTYVGSSSISTGIYYYWGQGTQVTVSS” as the sequence, how does the “polyreactivity (PSR sort gate)” value read?
A: low polyreactivity

Q: For “QVQLVESGGGLVQAGGSLRLSCAASGSTFEPYAMGWYRQAPGKEREFVAAISGSGGSTYYADSVKGRFTISRDNAKNTVYLQMNSLKPEDTAVSYCAKDSFPWVDDDYWGQATQVTVSS”, which “polyreactivity (PSR sort gate)” value is on record?
A: low polyreactivity

Q: Which “polyreactivity (PSR sort gate)” value does the source give for “QVQLVESGGGLVQAGGSLRLSCAASGSTFESYAMGWYRQAPGKERELVAAISQNGGSTYYADSVKGRFTISRDNAKNTVYLQMNSLKPEDTAVYYCNADVYPYYRKPWMDYWGQGPQVTVSS” here?
A: low polyreactivity

Q: Which “polyreactivity (PSR sort gate)” value does the source give for “QVQLVESGGGLVQAGGSLRLSCAASGSTFESYDMGWYRPAPGKERELVAAIDWSGGITYYADSVKGRFTISRDNAKNTVYLQMNSLKPEDTAVYYCNADWFVRYPKRVYWSEYDYWGHGTQVTVSS” here?
A: low polyreactivity

Q: Which “polyreactivity (PSR sort gate)” value does the source give for “QVQLVESGGGLVQAGGSLRLSCAASGSTFEVYVMGWYRQAPGKERELVAGISKRGGRTYYADSVKGRFTISRDTEKNTVYLQLNSLKPEDTAVYYCAADAPGHEYYYWGQGTQVTVSS” here?
A: high polyreactivity

Q: With “QVQLVESGGGLVQAGGSLRLSCAASGSTFEWYAMGGYRQAPGKEREFVASISWSGGRTYYADSVKGRFTISRDNAKNTVYLQMNSLKPEDTAVYYCAAVAVPLQVPSGRAASKRRYGYWGQGTQVTVSS” as the sequence, how does the “polyreactivity (PSR sort gate)” value read?
A: high polyreactivity

Q: With “QVQLVESGGGLVQAGGSLRLSCAASGSTFEYNAKGWYRQAPGKERELVASSTNYADSVKGRFTISRDNAKNTVYFQMNSLKPEDTAVYYCAARSLRYPYDYWGQGTQVTVSS” as the sequence, how does the “polyreactivity (PSR sort gate)” value read?
A: low polyreactivity

Q: With “QVQLVESGGGLVQAGGSLRLSCAASGSTFEYNAMGWYRQAPGKERELVASSTNYADSVKGRFTISRDNAKNTVYLQMNSLKPEDTAVYYCAREQGVNRNHDYWGQGTQGTVSS” as the sequence, how does the “polyreactivity (PSR sort gate)” value read?
A: low polyreactivity

Q: Which “polyreactivity (PSR sort gate)” value does the source give for “QVQLVESGGGLVQAGGSLRLSCAASGSTFEYNAMGWYRQAPGKERELVASSTNYAEAVKGRFTISRDNAKNTVYLQMNCLKPVDTAVYYCAREQGVNRNHDYWGQGTQVTVSS” here?
A: low polyreactivity

Q: Which “polyreactivity (PSR sort gate)” value does the source give for “QVQLVESGGGLVQAGGSLRLSCAASGSTFEYNAMGWYRQAPGKESELVASSTNYADSVKGRFTISRDNAKNTVYFQMNSLKPEDTAVYYCSREQGVNRNHDYWGQGTQVTVSS” here?
A: low polyreactivity

Q: For “QVQLVESGGGLVQAGGSLRLSCAASGSTFEYNDMGWYRQAPGKERELVAAISSGGDTNYADSVKGRFTISRDNAKITVYLQMNSLKPEDTAVYYCAADDWAPYRWYYGYAGYYYWGQGTLVTVSS”, which “polyreactivity (PSR sort gate)” value is on record?
A: low polyreactivity

Q: For “QVQLVESGGGLVQAGGSLRLSCAASGSTFEYYAMGWYRQAPGKERELVAAISRTGGRTYYADSVKGRFTISRDNAKNTVYLQMNSLKPEDTAVYYCNAVTRIGGGDYDDWGQGTQVTVSS”, which “polyreactivity (PSR sort gate)” value is on record?
A: low polyreactivity

Q: Which “polyreactivity (PSR sort gate)” value does the source give for “QVQLVESGGGLVQAGGSLRLSCAASGSTFEYYVMGWYRQAPGKERELVAAISGSGGGTYYADSVKGRFTISRDNAKNTVYLQMNSLKPEDTAVYYCAAVATQEKYDYWGQGTQVTVSS” here?
A: low polyreactivity

Q: With “QVQLVESGGGLVQAGGSLRLSCAASGSTFFANAMGWYRQAPGKERELVAAITSGGSTYYADSVKVRFTISRDNAKNTVYLQMNSLKPEDTAVYYCAAPLCGGARWGRWWLYDSWGQGTQVNVSS” as the sequence, how does the “polyreactivity (PSR sort gate)” value read?
A: low polyreactivity

Q: For “QVQLVESGGGLVQAGGSLRLSCAASGSTFFAYAMGWYRQAPGKERELVAAITGRGSTYYADSVKGRFTISRDNAKNTVYLQMNSLKPEDTAVYYCAAQRSRRYYRLDYWGQGTQVTVSS”, which “polyreactivity (PSR sort gate)” value is on record?
A: high polyreactivity

Q: Which “polyreactivity (PSR sort gate)” value does the source give for “QVQLVESGGGLVQAGGSLRLSCAASGSTFFGNAMGWYRQAPGTERELVAAIRFSGVGTYYADSVKGRFTISLDNAKNTVYLQMNSLKPEDTAVYYSAAESYYKYYWGQGTQVTVSS” here?
A: low polyreactivity
